Patent US20260193376A1

What was measured:
[1] = biological target: human plasma-derived Factor IXa (human) (UniProt P00740); experiment: cell-based or functional assay
[2] = biological target: human coagulation Factor X (human) (UniProt P00742); experiment: ITC, 37 °C, pH 7.4, antibody injected into FX
[3] = biological target: human coagulation Factor IX (human) (UniProt P00740); experiment: ITC, 37 °C, pH 7.4, antibody injected into FIX
[4] = biological target: human plasma-derived Factor IXa (human) (UniProt P00740); experiment: ITC, 37 °C, pH 7.4, antibody injected into FIXa
[5] = biological target: human plasma-derived Factor IXa (human) (UniProt P00740); experiment: FXa generation assay at eight OA antibody concentrations, fit to the quadratic binding equation

Sequence of human plasma-derived Factor IXa (human) (P00740 47-191, chain 1 of 2): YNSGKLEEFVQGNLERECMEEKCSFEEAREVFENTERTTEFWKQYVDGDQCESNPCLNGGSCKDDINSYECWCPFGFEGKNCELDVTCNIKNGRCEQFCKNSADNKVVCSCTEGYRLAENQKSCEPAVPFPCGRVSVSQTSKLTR
Sequence of human plasma-derived Factor IXa (human) (P00740 227-461, chain 2 of 2): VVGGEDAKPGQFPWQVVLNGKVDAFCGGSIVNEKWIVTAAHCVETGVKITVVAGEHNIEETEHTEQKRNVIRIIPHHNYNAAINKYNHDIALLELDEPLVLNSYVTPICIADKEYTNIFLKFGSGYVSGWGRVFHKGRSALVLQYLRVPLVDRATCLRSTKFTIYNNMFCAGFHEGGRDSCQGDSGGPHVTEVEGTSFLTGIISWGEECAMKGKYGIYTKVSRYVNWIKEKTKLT
Sequence of human coagulation Factor IX (human) (P00740 47-461 T194A limits assumed): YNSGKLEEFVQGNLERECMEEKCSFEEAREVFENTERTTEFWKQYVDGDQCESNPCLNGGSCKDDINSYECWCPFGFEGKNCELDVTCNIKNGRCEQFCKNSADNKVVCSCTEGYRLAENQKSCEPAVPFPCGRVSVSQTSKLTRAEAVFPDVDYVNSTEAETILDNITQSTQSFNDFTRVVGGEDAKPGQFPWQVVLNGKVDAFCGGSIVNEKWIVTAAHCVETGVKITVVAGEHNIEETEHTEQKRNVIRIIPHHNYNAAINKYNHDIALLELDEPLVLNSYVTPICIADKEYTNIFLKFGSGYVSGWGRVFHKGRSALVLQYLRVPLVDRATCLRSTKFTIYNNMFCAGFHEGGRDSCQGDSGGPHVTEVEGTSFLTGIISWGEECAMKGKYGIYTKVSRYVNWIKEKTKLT
Sequence of human coagulation Factor X (human) (P00742 41-179, chain 1 of 2): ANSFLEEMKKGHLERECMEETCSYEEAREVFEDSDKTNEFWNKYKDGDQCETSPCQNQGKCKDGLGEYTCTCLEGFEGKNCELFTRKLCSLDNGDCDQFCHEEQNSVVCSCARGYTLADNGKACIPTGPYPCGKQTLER
Sequence of human coagulation Factor X (human) (P00742 183-488, chain 2 of 2): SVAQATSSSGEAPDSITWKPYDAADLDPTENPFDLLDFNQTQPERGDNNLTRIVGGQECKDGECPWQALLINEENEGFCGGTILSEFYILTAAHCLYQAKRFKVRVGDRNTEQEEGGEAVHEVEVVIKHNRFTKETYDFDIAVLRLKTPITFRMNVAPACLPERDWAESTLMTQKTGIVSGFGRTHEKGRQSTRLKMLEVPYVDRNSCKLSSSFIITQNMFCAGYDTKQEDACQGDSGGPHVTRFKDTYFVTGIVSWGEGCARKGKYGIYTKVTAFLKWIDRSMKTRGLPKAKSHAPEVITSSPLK

Maximum stimulation (fold), FXa generation assay with bispecific antibody; maximum at 10480 nM [1] [fold]	Kd [2] [nM]	Kd [3] [nM]	Kd [4] [nM]	Stimulation Index, FXa generation assay, estimated at full FIXa saturation [1] [fold]	Kd [5] [nM]	Substance
891	2420	2770	1970			ACE910 (bispecific antibody)
				1370	1100	one-armed (OA) ACE910 anti-FIXa antibody
